Laboratory results reported in patent US20160272683A1 (Novo Nordisk, published 2016).
Numbered stars: 1 amine (or outer) side, 2 acyl side, 3 side chain; on linkers, the order of the positions; unused ones are H or OH. Ends that are not written are not given here. * marks the point of attachment. C20 diacid = O=C(O)CCCCCCCCCCCCCCCCCCC(=O)*; C18 diacid = O=C(O)CCCCCCCCCCCCCCCCC(=O)*; γGlu = O=C(O)[C@H](CCC(=O)[*:2])N[*:1]

T1: human calcitonin receptor (human, UniProt P30988 25-474)
T1 sequence (looked up): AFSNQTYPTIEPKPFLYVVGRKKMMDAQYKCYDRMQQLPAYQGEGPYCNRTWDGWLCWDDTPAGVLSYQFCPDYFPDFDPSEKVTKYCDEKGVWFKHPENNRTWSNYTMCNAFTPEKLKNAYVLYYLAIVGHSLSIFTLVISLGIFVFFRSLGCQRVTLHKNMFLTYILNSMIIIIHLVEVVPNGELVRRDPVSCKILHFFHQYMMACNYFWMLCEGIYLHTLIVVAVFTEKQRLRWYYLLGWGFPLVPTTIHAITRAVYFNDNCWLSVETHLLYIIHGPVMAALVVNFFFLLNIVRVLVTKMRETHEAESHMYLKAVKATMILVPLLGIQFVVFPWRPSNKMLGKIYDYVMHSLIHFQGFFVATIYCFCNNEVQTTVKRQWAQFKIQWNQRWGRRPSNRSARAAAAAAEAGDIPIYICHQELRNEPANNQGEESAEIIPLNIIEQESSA

T2: human amylin 3(a) receptor (human calcitonin receptor co-expressed with RAMP-3) (human, UniProt P30988 25-474; O60896 24-148, limits assumed)
T2 sequence (looked up) 1: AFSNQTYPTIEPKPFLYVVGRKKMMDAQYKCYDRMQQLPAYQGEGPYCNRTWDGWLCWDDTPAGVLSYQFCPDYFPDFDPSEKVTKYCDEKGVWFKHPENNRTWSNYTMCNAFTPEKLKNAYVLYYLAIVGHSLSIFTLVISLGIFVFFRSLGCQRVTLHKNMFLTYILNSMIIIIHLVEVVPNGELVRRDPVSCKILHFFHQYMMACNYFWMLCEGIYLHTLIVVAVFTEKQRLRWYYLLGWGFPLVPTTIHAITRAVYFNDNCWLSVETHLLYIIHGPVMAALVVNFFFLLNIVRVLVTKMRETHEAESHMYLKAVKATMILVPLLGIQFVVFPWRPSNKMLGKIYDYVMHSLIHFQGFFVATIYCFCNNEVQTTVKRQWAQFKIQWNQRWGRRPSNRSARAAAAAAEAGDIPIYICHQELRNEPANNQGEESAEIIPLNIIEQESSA
T2 sequence (looked up) 2: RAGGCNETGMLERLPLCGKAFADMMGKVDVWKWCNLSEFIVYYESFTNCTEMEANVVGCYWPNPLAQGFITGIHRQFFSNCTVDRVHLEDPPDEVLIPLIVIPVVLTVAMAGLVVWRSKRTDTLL


Columns and labels:
[1] = target: T1, human calcitonin receptor; assay: cell-based or functional assay
[2] = target: T2, human amylin 3(a) receptor (human …); assay: cell-based or functional assay

Binder	hCTR funct. EC50 (pM) [1]	hAmylin-R funct. EC50 (pM) [2]
{C18 diacid}-EASELSTALLGRLSAELHELATLPRTETGPESP-NH2 (SMILES CC(C)C[C@H](NC(=O)[C@H](C)NC(=O)[C@@H](NC(=O)[C@H](CO)NC(=O)[C@H](CC(C)C)NC(=O)[C@H](CCC(=O)O)NC(=O)[C@H](CO)NC(=O)[C@H](C)NC(=O)[C@H](CCC(=O)O)NC(=O)CCCCCCCCCCCCCCCCC(=O)O)[C@@H](C)O)C(=O)N[C@@H](CC(C)C)C(=O)NCC(=O)N[C@@H](CCCNC(=N)N)C(=O)N[C@@H](CC(C)C)C(=O)N[C@@H](CO)C(=O)N[C@@H](C)C(=O)N[C@@H](CCC(=O)O)C(=O)N[C@@H](CC(C)C)C(=O)N[C@@H](Cc1c[nH]cn1)C(=O)N[C@@H](CCC(=O)O)C(=O)N[C@@H](CC(C)C)C(=O)N[C@@H](C)C(=O)N[C@H](C(=O)N[C@@H](CC(C)C)C(=O)N1CCC[C@H]1C(=O)N[C@@H](CCCNC(=N)N)C(=O)N[C@H](C(=O)N[C@@H](CCC(=O)O)C(=O)N[C@H](C(=O)NCC(=O)N1CCC[C@H]1C(=O)N[C@@H](CCC(=O)O)C(=O)N[C@@H](CO)C(=O)N1CCC[C@H]1C(N)=O)[C@@H](C)O)[C@@H](C)O)[C@@H](C)O) [[N-terminal(C18 diacid), 9L]mimylin]	13 pM	28 pM
{C20 diacid-γGlu}-LSQLSTLVLGRLSQRLHRLQTYPRTQTGSQTY-NH2 (SMILES CC(C)C[C@H](NC(=O)CC[C@H](NC(=O)CCCCCCCCCCCCCCCCCCC(=O)O)C(=O)O)C(=O)N[C@@H](CO)C(=O)N[C@@H](CCC(N)=O)C(=O)N[C@@H](CC(C)C)C(=O)N[C@@H](CO)C(=O)N[C@H](C(=O)N[C@@H](CC(C)C)C(=O)N[C@H](C(=O)N[C@@H](CC(C)C)C(=O)NCC(=O)N[C@@H](CCCNC(=N)N)C(=O)N[C@@H](CC(C)C)C(=O)N[C@@H](CO)C(=O)N[C@@H](CCC(N)=O)C(=O)N[C@@H](CCCNC(=N)N)C(=O)N[C@@H](CC(C)C)C(=O)N[C@@H](Cc1c[nH]cn1)C(=O)N[C@@H](CCCNC(=N)N)C(=O)N[C@@H](CC(C)C)C(=O)N[C@@H](CCC(N)=O)C(=O)N[C@H](C(=O)N[C@@H](Cc1ccc(O)cc1)C(=O)N1CCC[C@H]1C(=O)N[C@@H](CCCNC(=N)N)C(=O)N[C@H](C(=O)N[C@@H](CCC(N)=O)C(=O)N[C@H](C(=O)NCC(=O)N[C@@H](CO)C(=O)N[C@@H](CCC(N)=O)C(=O)N[C@H](C(=O)N[C@@H](Cc1ccc(O)cc1)C(N)=O)[C@@H](C)O)[C@@H](C)O)[C@@H](C)O)[C@@H](C)O)C(C)C)[C@@H](C)O)	12 pM	10 pM
ASGLSTATLGRLSQELHELQTYPRTETGSGTY (ends and bridges not checked) [[des1, 4G, 9T, 15Q, 21Q, 23Y, 30S, 31G, 32T, 33Y]mimylin]	4 pM	5 pM
ASGLSTAVLGRLSQELHELQTYPRTETGSGTY (ends and bridges not checked) [[des1, 4G, 9V, 15Q, 21Q, 23Y, 30S, 31G, 32T, 33Y]mimylin]	4 pM	8 pM
EASELSTAALGRLSAELHELATLPRTETGSGSP-NH2 [[30S, 31G]mimylin]	2 pM	5 pM
{C20 diacid-γGlu}-ASQLSTAVLGRLSQRLHRLQTYPRTQTGSQTY-NH2 (SMILES CC(C)C[C@H](NC(=O)[C@H](CCCNC(=N)N)NC(=O)CNC(=O)[C@H](CC(C)C)NC(=O)[C@@H](NC(=O)[C@H](C)NC(=O)[C@@H](NC(=O)[C@H](CO)NC(=O)[C@H](CC(C)C)NC(=O)[C@H](CCC(N)=O)NC(=O)[C@H](CO)NC(=O)[C@H](C)NC(=O)CC[C@H](NC(=O)CCCCCCCCCCCCCCCCCCC(=O)O)C(=O)O)[C@@H](C)O)C(C)C)C(=O)N[C@@H](CO)C(=O)N[C@@H](CCC(N)=O)C(=O)N[C@@H](CCCNC(=N)N)C(=O)N[C@@H](CC(C)C)C(=O)N[C@@H](Cc1c[nH]cn1)C(=O)N[C@@H](CCCNC(=N)N)C(=O)N[C@@H](CC(C)C)C(=O)N[C@@H](CCC(N)=O)C(=O)N[C@H](C(=O)N[C@@H](Cc1ccc(O)cc1)C(=O)N1CCC[C@H]1C(=O)N[C@@H](CCCNC(=N)N)C(=O)N[C@H](C(=O)N[C@@H](CCC(N)=O)C(=O)N[C@H](C(=O)NCC(=O)N[C@@H](CO)C(=O)N[C@@H](CCC(N)=O)C(=O)N[C@H](C(=O)N[C@@H](Cc1ccc(O)cc1)C(N)=O)[C@@H](C)O)[C@@H](C)O)[C@@H](C)O)[C@@H](C)O) [[N-terminal(C20 diacid-gGlu), des1, 4Q, 9V, 15Q, 16R, 19R, 21Q, 23Y, 27Q, 30S, 31Q, 32T, 33Y]mimylin]	15 pM	16 pM
LSGLSTAVLGRLSQELHELQTYPRTETGSQTY-NH2 [[des1, 2L, 4G, 9V, 15Q, 21Q, 23Y, 30S, 31Q, 32T, 33Y]mimylin]	6 pM	11 pM
{C18 diacid}-EASELSTAALGRLSAELHELATLPRTETGPESP-OH [[N-terminal(C18 diacid), C-terminal(-)]mimylin]	45 pM	481 pM
{C20 diacid-γGlu}-ASGLSTAVLGKLSQELHELQTYPPTETGSGTY-NH2 (SMILES CC(C)C[C@H](NC(=O)CNC(=O)[C@H](CO)NC(=O)[C@H](C)NC(=O)CC[C@H](NC(=O)CCCCCCCCCCCCCCCCCCC(=O)O)C(=O)O)C(=O)N[C@@H](CO)C(=O)N[C@H](C(=O)N[C@@H](C)C(=O)N[C@H](C(=O)N[C@@H](CC(C)C)C(=O)NCC(=O)N[C@@H](CCCCN)C(=O)N[C@@H](CC(C)C)C(=O)N[C@@H](CO)C(=O)N[C@@H](CCC(N)=O)C(=O)N[C@@H](CCC(=O)O)C(=O)N[C@@H](CC(C)C)C(=O)N[C@@H](Cc1c[nH]cn1)C(=O)N[C@@H](CCC(=O)O)C(=O)N[C@@H](CC(C)C)C(=O)N[C@@H](CCC(N)=O)C(=O)N[C@H](C(=O)N[C@@H](Cc1ccc(O)cc1)C(=O)N1CCC[C@H]1C(=O)N1CCC[C@H]1C(=O)N[C@H](C(=O)N[C@@H](CCC(=O)O)C(=O)N[C@H](C(=O)NCC(=O)N[C@@H](CO)C(=O)NCC(=O)N[C@H](C(=O)N[C@@H](Cc1ccc(O)cc1)C(N)=O)[C@@H](C)O)[C@@H](C)O)[C@@H](C)O)[C@@H](C)O)C(C)C)[C@@H](C)O) [[N-terminal(C20 diacid-gGlu), des1, 4G, 9V, 12K, 15Q, 21Q, 23Y, 25P, 30S, 31G, 32T, 33Y]mimylin]	15 pM	18 pM
EASELSTAALGRLSAELHELATLPRTETGPESP-OH [[C-terminal(-)]mimylin]	840 pM	23600 pM
{C18 diacid}-EASELSTAALGRLSAELAELATLPRTETGPESP-NH2 (SMILES CC(C)C[C@H](NC(=O)[C@H](C)NC(=O)[C@H](C)NC(=O)[C@@H](NC(=O)[C@H](CO)NC(=O)[C@H](CC(C)C)NC(=O)[C@H](CCC(=O)O)NC(=O)[C@H](CO)NC(=O)[C@H](C)NC(=O)[C@H](CCC(=O)O)NC(=O)CCCCCCCCCCCCCCCCC(=O)O)[C@@H](C)O)C(=O)NCC(=O)N[C@@H](CCCNC(=N)N)C(=O)N[C@@H](CC(C)C)C(=O)N[C@@H](CO)C(=O)N[C@@H](C)C(=O)N[C@@H](CCC(=O)O)C(=O)N[C@@H](CC(C)C)C(=O)N[C@@H](C)C(=O)N[C@@H](CCC(=O)O)C(=O)N[C@@H](CC(C)C)C(=O)N[C@@H](C)C(=O)N[C@H](C(=O)N[C@@H](CC(C)C)C(=O)N1CCC[C@H]1C(=O)N[C@@H](CCCNC(=N)N)C(=O)N[C@H](C(=O)N[C@@H](CCC(=O)O)C(=O)N[C@H](C(=O)NCC(=O)N1CCC[C@H]1C(=O)N[C@@H](CCC(=O)O)C(=O)N[C@@H](CO)C(=O)N1CCC[C@H]1C(N)=O)[C@@H](C)O)[C@@H](C)O)[C@@H](C)O) [[N-terminal(C18 diacid), 18A]mimylin]	3 pM	4 pM

Second part, the binder after the results:

hCTR funct. EC50 (pM) [1]	hAmylin-R funct. EC50 (pM) [2]	Binder
103 pM	629 pM	ASELTTAVLGRLEAELHELTTLPRTETGTGTP-NH2 [[des1, 6T, 9V, 14E, 21T, 30T, 31G, 32T]mimylin]
1 pM	3 pM	EASELSTAALGRLSAELHELATLPRTETGPESP-NH2 [mimylin]
3 pM	14 pM	ASELSTAALGHLSAELHELATLPRTETGSGSP-NH2 [[des1, 12H, 30S, 31G]mimylin]
9 pM	46 pM	ASELTTAVLGRLSAELHELATLPRTETGTGTP-NH2 [[des1, 6T, 9V, 30T, 31G, 32T]mimylin]
2 pM	7 pM	ASEVSTAVLGRLSAELHELATLPRTETGSGSP-NH2 [[des1, 5V, 9V, 30S, 31G]mimylin]
